The target of experiment [1] is T1, cyno PD-1 (soluble analyte in SPR) (cyno).
T1 construct: also called cynomolgus PD-1
The experiment in a line: SPR (ProteOn XPR36), mAb captured on anti-human IgG Fc, cyno PD-1 as analyte, 25 C. As for the experimental part:
(§1) Affinity measurements were performed using a ProteOn XPR36 system (BioRad). […] Approximately 5000 RU (response units) of mAbs were immobilized. The kinetic experiments were performed at 25° C. in running buffer (DPBS+0.01% P20+100 μg/mL BSA). To perform kinetic experiments, 200 RU of mAbs were captured followed by injections of analytes (human and cyno PD-1) at concentrations ranging from 1.563 nM to 400 nM (in a […] serial dilution). The association phase was monitored for 3 minutes at 50 μL/min, then followed by 10 or 15 minutes of buffer flow (dissociation phase). The chip surface was regenerated with two 18 second pulses of 100 mM H₃PO₄ (Sigma, Cat #7961) at 100 μL/min.
(§2) The collected data were processed using ProteOn Manager software. First, the data was corrected for background using inter-spots. Then, double reference subtraction of the data was performed by using the buffer injection for analyte injections. The kinetic analysis of the data was performed using a Langmuir 1:1 binding model. The result for each mAb was reported in the format of ka (On-rate), kd (Off-rate) and KD (equilibrium dissociation constant).
(§3) Affinity of the antibodies to human and cyno PD-1 was measured using SPR as described in Example 1.

The target in experiment [2] is T2, human PD-1 (soluble analyte in SPR) (human, UniProt Q15116 25-170, limits assumed).
T2 construct: also called CD279; PDCD1
T2 sequence (Q15116 25-170 limits assumed): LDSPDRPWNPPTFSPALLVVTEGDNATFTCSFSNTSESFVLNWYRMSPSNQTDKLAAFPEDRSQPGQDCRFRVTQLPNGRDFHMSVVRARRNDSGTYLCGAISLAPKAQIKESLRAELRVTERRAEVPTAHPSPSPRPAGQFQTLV
The experiment in a line: SPR (ProteOn XPR36), mAb captured on anti-human IgG Fc, human PD-1 as analyte, 25 C. As for the experimental part:
as §1, §2, §3

B1: PD1B1085 (antibody, human IgG1, kappa, V domains shown)
VH: QVQLVQSGSELKKPGASVKVSCKASGYTFTDYSMHWVRQAPGQGLEWMGWINIETGYPTYAQGFTGRFVFSLDTSVSTAYLQISSLKAEDTAVYFCARDYYGTYFYAMDYWGQGTLVTVSS
VL: EIVLTQSPATLSLSPGERATLSCTASSSVSSSYLHWYQQKPGLAPRLLIYSTSNLASGIPDRFSGSGSGTDYTLTISRLEPEDFAVYYCHQYHRSPLTFGQGTKLEIKR
notes: also called VH PD1H585; VL PD1L469
With B1, in experiment [1], the Kd was determined as 6.45 nM, the koff came to 0.00129 s⁻¹ and the kon was 200000 M⁻¹ s⁻¹. In experiment [2], this molecule displayed a Kd of 0.911 nM, a koff of 0.000142 s⁻¹ and a kon of 156000 M⁻¹ s⁻¹.

B2: PD1B1092 (antibody, human IgG1, kappa, V domains shown)
VH: QVQLVQSGSELKKPGASVKVSCKASGYTFTDYSMHWVRQAPGQGLEWMGWINIETGWPTYAQGFTGRFVFSLDTSVSTAYLQISSLKAEDTAVYFCARDYYGTYFYAMDYWGQGTLVTVSS
VL: EIVLTQSPATLSLSPGERATLSCTASSSFSSSYLHWYQQKPGLAPRLLIYSTSNLASGIPDRFSGSGSGTDYTLTISRLEPEDFAVYYCHQYHRSPLTFGQGTKLEIKR
notes: also called VH PD1H587; VL PD1L651
With B2, in experiment [1], binding was characterised by a dissociation constant (Kd) of 3.18 nM, the koff is 0.000411 s⁻¹ and the kon stood at 129000 M⁻¹ s⁻¹. Besides, in experiment [2], the Kd came out at 0.214 nM, the koff is 3e-05 s⁻¹ and the kon was 140000 M⁻¹ s⁻¹.

B3: PD1B1089 (antibody, human IgG1, kappa, V domains shown)
VH: QVQLVQSGSELKKPGASVKVSCKASGYTFTDYSMHWVRQAPGQGLEWMGWINIETGEPTYAQGFTGRFVFSLDTSVSTAYLQISSLKAEDTAVYFCARDYYGTYFYAMDYWGQGTLVTVSS
VL: EIVLTQSPATLSLSPGERATLSCTASSSVPSSYLHWYQQKPGLAPRLLIYSTSNLASGIPDRFSGSGSGTDYTLTISRLEPEDFAVYYCHQYHRSPLTFGQGTKLEIKR
notes: also called VH PD1H405; VL PD1L652
In the case of B3, in experiment [1], the Kd amounted to 90 nM, the koff was 0.00839 s⁻¹ and the kon was found to be 93200 M⁻¹ s⁻¹. In experiment [2], this molecule returned a Kd of 8.09 nM, a koff of 0.000474 s⁻¹ and a kon of 58600 M⁻¹ s⁻¹.

B4: PD1B1091 (antibody, human IgG1, kappa, V domains shown)
VH: QVQLVQSGSELKKPGASVKVSCKASGYTFTDYSMHWVRQAPGQGLEWMGWINIETGHPTYAQGFTGRFVFSLDTSVSTAYLQISSLKAEDTAVYFCARDYYGTYFYAMDYWGQGTLVTVSS
VL: EIVLTQSPATLSLSPGERATLSCTASSSFSSSYLHWYQQKPGLAPRLLIYSTSNLASGIPDRFSGSGSGTDYTLTISRLEPEDFAVYYCHQYHRSPLTFGQGTKLEIKR
notes: also called VH PD1H586; VL PD1L651
In the case of B4, in experiment [1], the Kd came to 9.32 nM, the koff was determined as 0.000924 s⁻¹ and the kon is 99100 M⁻¹ s⁻¹. In experiment [2], the Kd turned out to be 0.83 nM, the koff turned out to be 6.44e-05 s⁻¹ and the kon is 77700 M⁻¹ s⁻¹.

B5: PD1B1088 (antibody, human IgG1, kappa, V domains shown)
VH: QVQLVQSGSELKKPGASVKVSCKASGYTFTDYSMHWVRQAPGQGLEWMGWINIETGEPTYAQGFTGRFVFSLDTSVSTAYLQISSLKAEDTAVYFCARDYYGTYFYAMDYWGQGTLVTVSS
VL: EIVLTQSPATLSLSPGERATLSCTASSSFSSSYLHWYQQKPGLAPRLLIYSTSNLASGIPDRFSGSGSGTDYTLTISRLEPEDFAVYYCHQYHRSPLTFGQGTKLEIKR
notes: also called VH PD1H405; VL PD1L651
In experiment [1], B5 showed a Kd of 72.4 nM, a koff of 0.00479 s⁻¹ and a kon of 66100 M⁻¹ s⁻¹. In experiment [2], this molecule registered a Kd of 10.9 nM, a koff of 0.000341 s⁻¹ and a kon of 31300 M⁻¹ s⁻¹.

B6: PD1B1087 (antibody, human IgG1, kappa, V domains shown)
VH: QVQLVQSGSELKKPGASVKVSCKASGYTFTDYSMHWVRQAPGQGLEWMGWINIETGWPTYAQGFTGRFVFSLDTSVSTAYLQISSLKAEDTAVYFCARDYYGTYFYAMDYWGQGTLVTVSS
VL: EIVLTQSPATLSLSPGERATLSCTASSSVSSSYLHWYQQKPGLAPRLLIYSTSNLASGIPDRFSGSGSGTDYTLTISRLEPEDFAVYYCHQYHRSPLTFGQGTKLEIKR
notes: also called VH PD1H587; VL PD1L469
In experiment [1], B6 had a Kd of 11.6 nM, a koff of 0.00247 s⁻¹ and a kon of 212000 M⁻¹ s⁻¹. Further, in experiment [2], the Kd amounted to 1.44 nM, the koff is 0.000239 s⁻¹ and the kon worked out at 166000 M⁻¹ s⁻¹.

For the origin of these results see patent US20180355061A1 (Janssen / Centocor, published 2018).
